Data taken from publication PMC314469, “Protein Interaction Networks by Proteome Peptide Scanning” (PLoS Biology, 2004).

T1: Myo5 SH3 (MYO5_YEAST), Q04439
T1 chain: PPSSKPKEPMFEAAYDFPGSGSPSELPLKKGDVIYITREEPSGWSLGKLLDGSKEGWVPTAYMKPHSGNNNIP

T2: Boi1 SH3 (BOI1_YEAST), P38041
T2 chain: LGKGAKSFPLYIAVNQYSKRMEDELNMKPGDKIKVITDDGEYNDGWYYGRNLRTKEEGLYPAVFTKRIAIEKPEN

T3: Boi2 SH3 (BOI2_YEAST), P39969
T3 chain: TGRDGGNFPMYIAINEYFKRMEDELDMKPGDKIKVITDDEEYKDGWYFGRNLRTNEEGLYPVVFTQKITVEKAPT

T4: Rvs167 SH3 (RV167_YEAST), P39743
T4 chain: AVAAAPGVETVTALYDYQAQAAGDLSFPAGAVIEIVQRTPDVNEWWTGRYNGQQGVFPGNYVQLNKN

T5: Yfr024 SH3 (LSB3_YEAST), P43603
T5 chain: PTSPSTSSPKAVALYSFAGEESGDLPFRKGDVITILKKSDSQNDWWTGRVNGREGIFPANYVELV

T6: Yhr016c SH3 (YSC84_YEAST), P32793
T6 chain: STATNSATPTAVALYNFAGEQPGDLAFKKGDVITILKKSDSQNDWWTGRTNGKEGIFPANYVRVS


Tests used:
Assay in all cases: SPOT array
[1] = biological target: T1, Myo5 SH3 (MYO5_YEAST), Q04439
[2] = biological target: T2, Boi1 SH3 (BOI1_YEAST), P38041
[3] = biological target: Sho1 SH3 (SHO1_YEAST), P40073
[4] = biological target: T3, Boi2 SH3 (BOI2_YEAST), P39969
[5] = biological target: T4, Rvs167 SH3 (RV167_YEAST), P39743
[6] = biological target: T5, Yfr024 SH3 (LSB3_YEAST), P43603
[7] = biological target: T6, Yhr016c SH3 (YSC84_YEAST), P32793

Sho1 SH3 (SHO1_YEAST), P40073, sequence (P40073 295-366): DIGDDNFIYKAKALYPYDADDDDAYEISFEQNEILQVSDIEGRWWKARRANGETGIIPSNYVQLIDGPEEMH

| Binder | normalised SPOT signal, Boehringer light units (BLU); mean over the file's lines of this peptide [1] | normalised SPOT signal, Boehringer light units (BLU); mean over the file's lines of this peptide [2] | normalised SPOT signal, Boehringer light units (BLU); mean over the file's lines of this peptide [3] | normalised SPOT signal, Boehringer light units (BLU); mean over the file's lines of this peptide [4] | normalised SPOT signal, Boehringer light units (BLU); mean over the file's lines of this peptide [5] | normalised SPOT signal, Boehringer light units (BLU); mean over the file's lines of this peptide [6] | normalised SPOT signal, Boehringer light units (BLU); mean over the file's lines of this peptide [7] |
| --- | --- | --- | --- | --- | --- | --- | --- |
| PKHIRNEPVKPFRN [YHR037W 25-38] | 361 | 1660 | 46.8 | 0 | 49.7 | 928 | 59.8 |
| PIVKKNVPKPPPLV [YBR123C 400-413] | 154 | 262 | 50.2 | 167 | 33 | 64.6 | 27.1 |
| PIRLRKRPPPPPPV [YIL156W 508-521] | 60300 | 6390 | 98.1 | 39.2 | 289 | 292 | 25.6 |
| PGGPKFEPLYPREE [YHR165C 347-360] | 90 | 0 | 40.6 | 16.6 | 176 | 12.3 | 16.9 |
| PKSEKIEPLSPSFK [YJL172W 61-74] | 116 | 536 | 84.8 | 7.7 | 44.3 | 0 | 0.1 |
| PHFAKHSPDSPRTS [YER167W 325-338] | 236 | 150 | 25.1 | 11 | 110 | 33.4 | 27.4 |
| PIGSRYNPNLPVTE [YPR019W 677-690] | 187 | 132 | 36.1 | 148 | 95.7 | 197 | 87.4 |
